From patent publication US20230218656, “POLYPEPTIDES […] AGAINST VIRAL INFECTION AND USES […]” (QUADRUMIX BIOTECHNOLOGY INC., published 2023)

Target: sdAb1 (NB07) (Artificial sequence)
Test: MST; negative control; p86 says only weak interaction in phage ELISA (FIG. 4)
Settings: G4

Sequence of sdAb1 (NB07) (Artificial sequence) (chain, as listed by the source): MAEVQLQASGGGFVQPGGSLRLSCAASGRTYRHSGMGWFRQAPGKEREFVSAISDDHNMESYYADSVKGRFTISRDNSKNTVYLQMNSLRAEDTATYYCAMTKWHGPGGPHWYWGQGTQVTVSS

B1: HBV pre-core promoter G-quadruplex (WT) (structured_DNA)
DNA: CTGGGAGGAGCTGGGGGAGGAGA
  binding result: no binding
